Experimental data taken from patent publication CN115093478A.

Biological target: 天然CHIKV-E2蛋白 (Chikungunya virus (Ross株))

B1: 2A2-E10(HRP) (antibody, V domains shown)
VH: EVQLVESGGGLVQPKGSLKLSCAASGFTHNTYNMNWVRQAPGKGLEWVARIRSGSNMYATYYADSVKDRFTISRDDSQSILYLQMNNLKTEDTVMYYCERPDYSGSSYFDYWGQGTTLTVSS
VL: DIQLTQPPSYLAASPGETITINCRASKSYSKYCLAWYQEKPGKTNKLLIYSGSTLQSGIPSRFSGSGSGTDFTLTISSLEPEDFAMYYCQQGNMYPYTFGGGTKLEIK
DAS-ELISA检测灵敏度: 1e+06 PFU/mL
